The text below walks through data of publication PMC6635489.

Holding throughout (details): glycan lost; control: wild type GluK3
Series [1] in a line: whole-cell dose-response, 30 µM-30 mM glutamate.
A short description of series [2]: whole-cell patch clamp, 30 mM glutamate, HEK293. (In patch-clamp work, channel activity is measured electrically.)
Series [3] can be described thus: surface biotinylation, anti-GluR6/7 blot, HEK293.
The nature of series [4]: two-pulse 30 mM glutamate protocol, whole-cell patch clamp.

B1: GluK3: T249A/T397A (protein)
parent chain: MTAPWRRLRSLVWEYWAGFLVCAFWIPDSRGMPHVIRIGGIFEYADGPNAQVMNAEEHAFRFSANIINRNRTLLPNTTLTYDIQRIHFHDSFEATKKACDQLALGVVAIFGPSQGSCTNAVQSICNALEVPHIQLRWKHHPLDNKDTFYVNLYPDYASLSHAILDLVQSLKWRSATVVYDDSTGLIRLQELIMAPSRYNIRLKIRQLPIDSDDSRPLLKEMKRGREFRIIFDCSHTMAAQILKQAMAMGMMTEYYHFIFTTLDLYALDLEPYRYSGVNLTGFRILNVDNAHVSAIVEKWSMERLQAAPRAESGLLDGVMMTDAALLYDAVHIVSVCYQRASQMTVNSLQCHRHKPWRFGGRFMNFIKEAQWEGLTGRIVFNKTSGLRTDFDLDIISLKEDGLEKVGVWSPADGLNITEVAKGRGPNVTDSLTNRSLIVTTLLEEPFVMFRKSDRTLYGNDRFEGYCIDLLKELAHILGFSYEIRLVEDGKYGAQDDKGQWNGMVKELIDHKADLAVAPLTITHVREKAIDFSKPFMTLGVSILYRKPNGTNPSVFSFLNPLSPDIWMYVLLAYLGVSCVLFVIARFSPYEWYDAHPCNPGSEVVENNFTLLNSFWFGMGSLMQQGSELMPKALSTRIIGGIWWFFTLIIISSYTANLAAFLTVERMESPIDSADDLAKQTKIEYGAVKDGATMTFFKKSKISTFEKMWAFMSSKPSALVKNNEEGIQRTLTADYALLMESTTIEYITQRNCNLTQIGGLIDSKGYGIGTPMGSPYRDKITIAILQLQEEDKLHIMKEKWWRGSGCPEEENKEASALGIQKIGGIFIVLAAGLVLSVLVAVGEFIYKLRKTAEREQRSFCSTVADEIRFSLTCQRRLKHKPQPPMMVKTDAVINMHTFNDRRLPGKDSMSCSTSLAPVFP
Regarding B1, in series [1], the “other: glutamate EC50 of channel current, EC50” value (shortened to “other: glutamate EC50”) is on record as “decreases, 6.5 vs 9.5”. Also, the “other: desensitization time constant, other: mean weighted tau_des” value (shortened to “other: desensitization time constant”) in series [2] is “no change, 4.3 ± 0.2 vs 3.8 ± 0.5”. The localisation_or_trafficking result in series [3] is listed as “no change”.

B2: GluK3: T249A (protein)
parent chain: B1 parent chain
In the case of B2, the “other: glutamate EC50” value in series [1] is reported as “decreases, 7.2 vs 9.5”. Also, the “other: desensitization time constant” value in series [2] is on record as “no change, 3.7 ± 0.4 vs 3.8 ± 0.5”. The localisation_or_trafficking entry in series [3] is listed as “no change”.

B3: GluK3: S404A (protein)
parent chain: B1 parent chain
As to B3, in series [1], the “other: glutamate EC50” value was “no change, 10.3 vs 9.5”. In series [4], the “other: time constant of recovery from desensitization, other: tau_rec” value (“other: time constant of recovery” for short) is given as “decreases, 0.5 vs 0.9”. In series [2], the “other: desensitization time constant” value is reported as “no change, 4.5 ± 0.3 vs 3.8 ± 0.5”. In series [3], the localisation_or_trafficking result was “no change”.

B4: GluK3: N721A glycan knockout (Methods: T723A) (protein)
parent chain: B1 parent chain
As for B4, the localisation_or_trafficking entry in series [3] was “abolishes”.

B5: GluK3: T249A/S404A (protein)
parent chain: B1 parent chain
Turning to B5, in series [1], the “other: glutamate EC50” value is listed as “decreases, 5.3 vs 9.5”. Also, the “other: time constant of recovery” value in series [4] is on record as “decreases, 0.3 vs 0.9”. The “other: desensitization time constant” value in series [2] is given as “no change, 4.1 ± 0.2 vs 3.8 ± 0.5”. Moreover, in series [3], the localisation_or_trafficking entry is listed as “no change”.

B6: GluK3: T397A (protein)
parent chain: B1 parent chain
On to B6, for which, in series [1], the “other: glutamate EC50” value is “decreases, 3.7 vs 9.5”. Moreover, in series [4], the “other: time constant of recovery” value is “no change, 0.8 vs 0.9”. Besides, the “other: desensitization time constant” value in series [2] is “no change, 3.2 ± 0.2 vs 3.8 ± 0.5”. The localisation_or_trafficking result in series [3] was “no change”.

B7: GluK3: T397A/S404A (protein)
parent chain: B1 parent chain
As to B7, in series [1], the “other: glutamate EC50” value was “decreases, 5.7 vs 9.5”. Also, in series [4], the “other: time constant of recovery” value is “decreases, 0.5 vs 0.9”. The “other: desensitization time constant” value in series [2] is listed as “no change, 4.0 ± 0.4 vs 3.8 ± 0.5”. Moreover, the localisation_or_trafficking entry in series [3] was “no change”.
